# Laboratory results taken from the RNAGym collection of RNA variant scans (doi:10.1073/pnas.2313332121).
# B1: TPR t1 (parent)
# chain: GACCAAUCUGCCCUCAGAGCUCGAGAACAUCUUCGGAUGCAGAGGAGGCAGGCUUCGGUGGCGCGAUAGCGCCAACGUCCUCAACCUCCAAUGCAUCCCACCACAUGAUGAUGCCUGAAGAGCCUUGGUUUUUUG
# Variants of: B1
# Assay: polymerase ribozyme fitness, log enrichment relative to wild type (log ratio); higher = more active; in vitro selection for triplet polymerase activity
# In short: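 Libraries of mutants in each subunit of a heterodimeric triplet polymerase ribozyme were generated by PCR and transcribed. In triplicate, each went through one in vitro selection round: annealing with biotinylated primer, partner subunit and triplets; frozen incubation at −7 °C; gel excision of extended constructs; streptavidin-bead capture; RT-PCR. Fitness, taken from Illumina sequencing of input and output libraries, is the logarithm of a genotype's enrichment over wild-type enrichment, averaged across replicates with inverse-variance weights. The logarithm is base 2, and genotypes needed ≥10 input reads and ≥1 read per output to be kept.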
row,Variant,polymerase ribozyme fitness (log ratio)
1,A5G G48C,-1.69
2,C4U G17U G60U C89A,-4.98
3,C4U G71U C97U C123A,0.307
4,C4U C72U G117C,-4.14
5,A5C C20A A37G A84U A90C U109G,-4.05
6,A5C G48U C49A C94A,-2.25
7,C4U U38G C49A C53U C73U,-2.53
8,A5C A83G U106A C123U G135A,-1.09
9,A5G C56A G69A C86A,-3.95
10,C4U G48U C56G U78A C98U U112G G135A,-4.14
11,A5C U92A C101U C115A U133G,-4.61
12,C4U G69U C72G C124G,0.464
13,A5G C13U C70U C94G,-1.73
14,A5G,-0.0211
15,A5U,-0.135
16,A5C,-0.52
17,A5C G39A G69A G120C,-4.21
18,A5G A91U,-1.78
19,A5G C13U G44U U96G U133A,-2.01
20,A5C G77A,-0.654
21,C4U G44U,-1.74

row,Variant,polymerase ribozyme fitness (log ratio)
1,C4U G71A U87A C97U,-1.86
2,A5C C12A C72U G113C,-3.72
3,C4U G48A G71U U106A,-1.2
4,A5G C49U C70U C72U A121U U133G,0.312
5,C4U G10C G69U U125A,-2.15
6,C4U C56A C86U,-1.22
7,A5G A84U U112G,-0.141
8,A5C C73A C123G,1.28
9,A5C G63C A75C C94A G113C G122U,-4.55
10,C4U C53U G69A U78A C86U,-3.99
11,C4U G10A U21A G44A A83U,-1.59
12,A5G A18G C79A U81C C89U G93U G120C C124U,-6.53
13,A5G G45U A46C G61A U78G C115U,-2.84
14,C4U C70A A121C U131A,-0.259
15,A5C C64A U112C,-6.42
16,A5G G10A C72U A91U,-2.06
17,A5C C11G U87G C89A G120C,-0.971
18,A5C C15G G57U,-3.53
19,C4U C49A G60C C80A C115A,-5.4
20,A5C G63U,-1.6
21,A5C A27U C73U C123U G128A,-3.34

row,Variant,polymerase ribozyme fitness (log ratio)
1,A5G U9C C124U,1.89
2,C4U G36A C70A G71A A90G U112G,-6.28
3,C4U G36C G63A G69U G120A G127A,-0.365
4,A5C C15A C64U U81C C88U,-3.57
5,A5G G45A C49A G69U G93A U130G U131A,-2.39
6,A5G A26C C72U U87A G120U U130A,-3.99
7,A5C U9G C80U A90U U92A,-2.94
8,A5C A91U,-2.68
9,C4U G58A C124U,0.263
10,C4U G45U C124A,0.121
11,A5C C8A C28U U54C A84G,-3.62
12,C4U U9G C11A C72U A74U U106A,-0.724
13,C4U G47A C56U C70A C101U A119G G120U G127A,-3.88
14,A5C U112A,1.05
15,A5C U112C,0.655
16,A5G C49G,-1.85
17,A5C U54C C82G C104A U131C,-1.29
18,A5C C73G C86G C99U G110A U112G,-7.21
19,C4U U9G G35A G47U G48U G63A C104U G113U,-6.85
20,C4U C70U G77C,-1.36
21,A5G C8U G61U C94U,0.251

row,Variant,polymerase ribozyme fitness (log ratio)
1,A5C U129A,-0.548
2,A5G A43G G63A U112G,-5.31
3,A5G G10U G42U,-1.51
4,A5C A27C,-3.97
5,C4U G60A C86U G93A G117A U133A,-3.03
6,A5G G60C G69A,-5.79
7,A5C G60A G61A C114A,-4.47
8,A5C A50U G69A U81A A121C,-1.62
9,A5G G45U G60A C101G U133G,-3.66
10,A5C C86U,-0.23
11,A5G U81A,-0.807
12,A5G C80A,-2.34
13,C4U C102U C124U,-0.637
14,A5C C12A U96C G128C,-2.92
15,A5C U9C G61C,-1.78
16,A5C A75G U130G U133A,-0.35
17,C4U C22G G48A C89A C124A,-3.16
18,A5G G36U G48A G61C G122U C123U,-1.93
19,A5G C114A,-1.2
20,A5G C88A G107A C114U,-3.65
